Laboratory results from patent publication US20160299151.

Columns and labels:
L-alanine-L-glutamine = molecular target: T1, L-alanine-L-glutamine
T1 chain: AQ

L-glycine-L-glutamine = molecular target: T2, L-glycine-L-glutamine
T2 chain: GQ

B1: holo-BpsA (BpsA pre-activated by Sfp as in Example 1), His6-tagged recombinant polypeptide (protein)
chain: MTLQETSVLEPTLQGTTTLPGLLAQRVAEHPEAIAVAYRDDKLTFRELASRSAALADYLEHLGVSADDCVGLFVEPSIDLMVGAWGILNAGAAYLPLSPEYPEDRLRYMIENSETKIILAQQRLVSRLRELAPKDVTIVTLRESEAFVRPEGTEAPAARSARPDTLAYVIYTSGSTGKPKGVMIEHRSIVNQLGWLRETYAIDRSKVILQKTPMSFDAAQWEILSPANGATVVMGAPGVYADPEGLIETIVKHNVTTLQCVPTLLQGLIDTEKFPECVSLQQIFSGGEALSRLLAIQTTQEMPGRALINVYGPTETTINSSSFPVDPADLDEGPQSISIGSPVHGTTYHILDKETLKPVGVGEIGELYIGGIQLARGYLHRDDLTAERFLEIELEEGAEPVRLYKTGDLGQWNNDGTVQFAGRADNQVKLRGYRVELDEISLAIENHDWVRNAAVIVKNDGRTGFQNLIACIELSEKEAALMDQGNHGSHHASKKSKLQVKAQLSNPGLRDDAELAARPAFDLEGAEPTPEQRARVFARKTYRFYEGGAVTQADLLGLLGATVTAGYSRKAADLAPAELGQILRWFGQYISEERLLPKYGYASPGALYATQMYFELEGVGGLKPGYYYYQPVRHQLVLISEREATGKATAQIHFIGKKSGIEPVYKNNILEVLEIETGHMVGLFEQILPAYGLDIHDRAYEPAVKDLLDVADEDYYLGTFELVPHAGARDDQAEVYVQTHGGKVAGLPEGQYRYENGELTRFSDDIVLKKHVIAINQSVYQAASFGISVYSRAEEEWLKYITLGKKLQHLMMNGLNLGFMSSGYSSKTGNPLPASRRMDAVLGANGVDSAPMYFFVGGRISDEQIGHEGMREDSVHMRGPAELIRDDLVSFLPDYMIPNRVVVFDRLPLSANGKIDVKALAASDQVNAELVERPFVAPRTETEKEIAAVWEKALRRENASVQDDFFESGGNSLIAVGLVRELNARLGVSLPLQSVLESPTIEKLARRLEREVAQESSRFVRLHAETGKARPVICWPGLGGYPMNLRSLAGEIGLGRSFYGVQSYGINEGETPYETITEMAKKDIEALKEIQPAGPYTLWGYSFGARVAFETAYQLEQAGEKVDNLFLIAPGSPKVRAENGKVWGREASFANRGYTTILFSVFTGTISGPDLDRCLETVTDEASFAEFISELKGIDVDLARRIISVVGQTYEFEYSFHELAERTLQAPISIFKAVGDDYSFLENSSGYSAEPPTVIDLDADHYSLLREDIGELVKHIRYLLGE
blue pigment formation (A590 after resuspension in DMSO) after 72 hours at 25 C with 4 mM substrate (L-alanine-L-glutamine): In each case except the no substrate control, blue pigment formation was observed, suggesting that an indigoidine like product had indeed been formed | blue pigment formation (A590 after resuspension in DMSO) after 72 hours at 25 C with 4 mM substrate (L-glycine-L-glutamine): In each case except the no substrate control, blue pigment formation was observed, suggesting that an indigoidine like product had indeed been formed
